The target of assay [1] is T1, BCAM protein (antigenic protein coated in the ELISA) (UniProt P50895 32-547, limits assumed).
T1 construct: also called antigen protein; Lu
T1 sequence (looked up): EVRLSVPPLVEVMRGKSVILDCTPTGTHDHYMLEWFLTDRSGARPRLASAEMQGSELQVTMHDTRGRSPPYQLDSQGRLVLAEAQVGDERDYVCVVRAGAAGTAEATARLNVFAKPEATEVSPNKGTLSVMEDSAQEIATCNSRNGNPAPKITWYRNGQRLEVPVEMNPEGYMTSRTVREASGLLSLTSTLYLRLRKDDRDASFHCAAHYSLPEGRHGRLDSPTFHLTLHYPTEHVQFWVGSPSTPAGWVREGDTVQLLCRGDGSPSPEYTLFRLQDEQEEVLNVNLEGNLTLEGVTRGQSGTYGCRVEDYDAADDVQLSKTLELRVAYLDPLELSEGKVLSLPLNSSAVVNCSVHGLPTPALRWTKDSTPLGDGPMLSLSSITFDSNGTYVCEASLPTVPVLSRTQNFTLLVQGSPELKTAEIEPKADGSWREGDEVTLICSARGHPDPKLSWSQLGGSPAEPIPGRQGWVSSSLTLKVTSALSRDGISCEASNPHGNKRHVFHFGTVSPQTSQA
Briefly: ELISA, BCAM coated at 15 nM, antibody at 1 nM. The method, then: (§1) In order to confirm the binding ability of each antibody prepared in Example 1 to an antigen protein (BCAM protein), an ELISA (Enzyme-Linked Immunosorbent Assay) test was performed. The antigenic protein was diluted in PBS buffer and prepared to a concentration of 15 nM. Each well of a 96-well half plate (Costar, Cat. No. 3690) was coated with 50 μL of the antigenic protein, followed by overnight incubation at 4° C. Next day, after all the solutions in the plate were removed, a blocking buffer (3% BSA in PBS) was added to each well, followed by incubation at 37° C. for 1 hour. Three antibody samples (111a, 111b, and 111c) were sequentially diluted in the blocking buffer from 1 μM to 7 points (1 pM) at a dilution ratio of 10-fold. After the blocking process was completed, the buffer was removed from the well, and the antibodies prepared by the dilution was added to each well by 50 μL, followed by incubation at 37° C. for 2 hours. The incubated well was washed with 0.1% PBST (0.1% Tween 20 in PBS) and were treated with HRP-conjugated anti-human IgG Fc antibodies (ThermoFisher Scientific, Cat. No.: 31423) which were secondary antibodies for antibody detection at 37° C. for 1 hour, and then washed again with 0.1% PBST. ABTS solution (ThermoFisher Scientific, Cat. No.: 00-2024) was added to each well by 50 μL for coloring, and reacted at room temperature for 10 minutes, and an optical density at 405 nm (OD₄₀₅) was measured. In order to compare the degree of avidity of each antibody to antigens, the EC50 concentration of each antibody was calculated, and the results are shown in Table 4.
For orientation: ELISA stands for enzyme-linked immunosorbent assay.

Assay [2] concerns the target T1, BCAM protein (antigenic protein coated …). Briefly: ELISA, BCAM coated at 15 nM, antibody at 1000 nM. The method, then: as §1
Assay [3] shares this target. Briefly: ELISA, BCAM coated at 15 nM, antibody at 100 nM. The method, then:
as §1

For assay [4] the target is unchanged. In words: ELISA, BCAM coated at 15 nM, antibody at 0.1 nM. As for the experimental part: as §1
The target is the same in assay [5]. Briefly: ELISA, BCAM coated at 15 nM, antibody at 10 nM. As for the experimental part:
as §1

Assay [6] shares this target. In words: ELISA, BCAM coated at 15 nM, antibody at 0.001 nM. The method, then: as §1
For assay [7], the target named is T2, Human BCAM expressed on transfected HEK293FT cells (human, UniProt P50895 32-628).
T2 construct: whole, on cells; also called Human BCAM antigens; 293FT/BCAM1
T2 sequence (looked up): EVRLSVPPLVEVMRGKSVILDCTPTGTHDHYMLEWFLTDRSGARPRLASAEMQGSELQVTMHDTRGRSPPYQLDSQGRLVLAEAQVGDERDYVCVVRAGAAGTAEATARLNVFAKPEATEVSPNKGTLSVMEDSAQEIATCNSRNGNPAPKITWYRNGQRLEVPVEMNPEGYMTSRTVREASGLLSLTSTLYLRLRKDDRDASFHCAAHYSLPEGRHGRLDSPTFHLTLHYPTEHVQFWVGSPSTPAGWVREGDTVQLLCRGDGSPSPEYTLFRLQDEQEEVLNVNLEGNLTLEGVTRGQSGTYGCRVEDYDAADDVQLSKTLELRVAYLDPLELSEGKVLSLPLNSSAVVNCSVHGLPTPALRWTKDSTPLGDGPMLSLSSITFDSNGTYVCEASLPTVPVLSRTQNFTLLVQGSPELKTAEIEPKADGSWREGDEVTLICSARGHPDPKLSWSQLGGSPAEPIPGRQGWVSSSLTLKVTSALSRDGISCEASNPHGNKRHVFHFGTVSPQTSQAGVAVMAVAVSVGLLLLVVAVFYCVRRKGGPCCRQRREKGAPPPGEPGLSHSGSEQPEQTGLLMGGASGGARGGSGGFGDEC
Briefly: flow cytometry on HEK293FT cells transfected with human BCAM. The method, then: Human BCAM antigens were expressed in HEK293FT cells via transfection (using 293FT/BCAM1 plasmid). The transfected HEK293FT cells (1×10⁵ cells) were suspended in PBS and 50 μL thereof was seeded on a plate.
Separately, each of the anti-BCAM antibodies of Example 1 and isotype control (human IgG) antibodies was initially diluted at a concentration of 45 μg/mL using PBS and diluted 12 times through 3-fold dilution, and the plate was incubated at an appropriate time and at an appropriate temperature. As a negative control, PBS buffer was used.
Then, after washing, AlexaFluor® 647 AffiniPure Goat Anti-Human IgG (H+L) (min X Bov, Hrs, Ms Sr Prot) (Jackson) (1 μg/mL) was added thereto and the plate was incubated again, washed again with PBS, and the binding degree of antigen-antibody was analyzed with a flow cytometer.
In general terms: A flow cytometer gives signals particle by particle.

For assay [8], the target named is T3, Human BCAM (amine-coupled to AR2G biosensors) (human, UniProt P50895 32-547, limits assumed).
T3 construct: also called human BCAM protein
T3 sequence (looked up): T1 sequence (looked up)
Briefly: BLI (Octet QK), human BCAM amine-coupled to AR2G sensor, antibody in solution, 1:1 fit. The method, then: The binding ability confirmation test according to BLI for the three antibodies prepared in Example 1 was performed using Octet (Octet QK, ForteBio).
Specifically, in order to bind human BCAM (antigen) using amine coupling, Reactive 2nd Generation (AR2G) biosensors (Cat. No. 18-5094, Sartorius) were mounted and activated using the AE2G reagent kit (Cat. No. 18-5095). Thereafter, the biosensors were put in an antigen solution for 10 minutes to bind the human BCAM, and put in an ethanolamine solution for 5 minutes to terminate the reaction. The biosensors to which the human BCAM was bound was put into a buffer containing the prepared three different antibodies 111a, 111b, and 111c, and the binding reaction was monitored for 5 minutes, followed by a dissociation reaction for 15 minutes. At this time, antibody solutions were sequentially diluted, and association and dissociation rates depending on different concentrations were verified. The association (Ka) and dissociation (Kd) rate constants were determined by fitting them to a 1:1 binding model using a curve-fitting software. The binding dissociation equilibrium constant (KD) was calculated with KD=Kd/Ka.

Assay [9] concerns the target T1, BCAM protein (antigenic protein coated …). In words: ELISA, BCAM coated at 15 nM, antibody at 0.01 nM. The method, then: as §1
Assay [10] has the same target. Briefly: ELISA on coated BCAM protein. As for the experimental part:
as §1

B1: anti-BCAM human IgG4 antibody 111b (antibody, V domains shown)
VH: EVQLVQSGAEVKKPGASVKVSCKASGYTFTSYYMHWVRQAPGQGLEWMGIINPSGGSTSYAQKFQGRVTMTRDTSTSTVYMELSSLRSEDTAVYYCARDGKGWDYYGSGSPLQYWGQGTLVTVSS
VL: LPVLTQPPSVSKGLRQTATLTCTGNSNNVGNQGAAWLQQHQGHPPKLLSYRNNDRPSGISERLSASRSGNTASLTITGLQPEDEADYYCSAWDSSLSAWVFGGGTKLTVL
Turning to B1, the OD405 was 0.33 OD405 in assay [1]; 0.76 OD405 in [2]; 0.46 OD405 in assay [3]; 0.35 OD405 in assay [4]; 0.43 OD405 in assay [5]; 0.1 OD405 in assay [6]. In addition, the OD405 in assay [9] came out at 0.15 OD405. For the same molecule, the EC50 – broadly, the midpoint of the concentration-response curve – in assay [7] stood at 0.171 µg/mL; in assay [10], 127 nM. The affinity in assay [8], expressed as Kd, was 13.1 nM. In assay [8], the koff (commonly a measure of how fast the partners let go of each other) is 0.000306 s⁻¹. In assay [8], the on-rate constant (kon) (usually the second-order rate constant of association) stood at 23400 M⁻¹ s⁻¹.

B2: anti-BCAM human IgG4 antibody 111c (antibody, V domains shown)
VH: EVQLVQSGGGLVKPGGSLRLSCAASGFTFSDYYMSWIRQAPGKGLEWVSYTSSSGSTIYYADSVKGRFTISRDNAKNSLYLQMNSLRAEDTAVYYCARDITAFDIWGQGTMVTVSS
VL: LPVLTQPPSASGSPGQSVTISCTGTSSDVGGYNYVSWYQQHPGKAPKLMIYEVNKRPSGVPDRFSGSKSGNTASLTVSGLQAEDEADYYCCSYAGSNNYVFGTGTKVTVL
B2: the OD405 is 0.5 OD405 in assay [1]; 2.34 OD405 in [2]; 2.26 OD405 in [3]; 0.31 OD405 in [4]; 1.41 OD405 in assay [5]; 0.11 OD405 in assay [6]. The OD405 in [9] is 0.25 OD405. The concentration for a half-maximal effect (EC50) in assay [7] was 0.0427 µg/mL; in assay [10], 7.7 nM. For the same molecule, the affinity in [8], expressed as Kd, was 0.084 nM. The koff in [8] came out at 0.000255 s⁻¹. In assay [8], this molecule displayed an on-rate (kon) of 3.04e+06 M⁻¹ s⁻¹.

B3: anti-BCAM human IgG4 antibody 111a (antibody, V domains shown)
VH: QVTLKESGPGLVKPSGTLSLTCAVSGGSISSSNWWSWVRQPPGKGLEWIGEIYHSGSTNYNPSLKSRVTISVDKSKNQFSLKLSSVTAADTAVYYCARAYTVTTTYFDYWGQGTLVTVSS
VL: NIQMTQSPSTLSASVGDRVTITCRASQSMSTWLAWYQQKPGRAPKLLIYKASALETGVPSRFSGSGSGTQFTLTISSLQPDDFATYYCQQYDEFASFGQGTKVEIK
notes: Derived from a human scFv phage library; also called 11la
Regarding B3, the OD405 amounted to 0.46 OD405 in assay [1]; 2.32 OD405 in assay [2]; 2.14 OD405 in assay [3]; 0.18 OD405 in [4]; 1.09 OD405 in [5]; 0.1 OD405 in assay [6]. Further, the OD405 in [9] was 0.11 OD405. For the same molecule, the values for the EC50 in assay [7] and in assay [10] were 0.189 µg/mL and 12.5 nM, respectively. Further, the dissociation constant (Kd) (usually the equilibrium constant for the complex coming apart) in assay [8] came out at 2.47 nM. This molecule yielded a koff in assay [8] of 0.000397 s⁻¹. The kon in assay [8] came to 161000 M⁻¹ s⁻¹.

Values taken from patent US20240209112A1 (GENOME, published 2024).
